Results reported in paper PMC4192513, “A Novel Protein-Protein Interaction in the RES (REtention and Splicing) Complex” (The Journal of Biological Chemistry, 2014).
Ends that are not written are not given here.

What was measured:
[1] = Precipitation / solubility of the sample on addition of Bud13p peptide to 15N-labeled Snu17p; format: physicochemical; conditions: addition to recombinant 15N-labeled Snu17p, NMR titration
Protocol: (§1) Recombinant proteins were purified by sonicating the harvested cell pellet in 25 ml of lysis buffer (20 mM Tris, pH 7.5, 300 mM NaCl, 10 mM imidazole, 1 mM DTT, and 0.02% NaN3), also including protease inhibitors, RNase, lysozyme, and 0.2% IGEPAL. After high speed centrifugation (20,000 × g, 30 min) and filtering, each supernatant was applied to Ni-NTA-agarose resin (Qiagen). Several rounds of washing were performed with: lysis buffer including 0.2% IGEPAL, lysis buffer, lysis buffer with high salt concentration (1 M NaCl), and lysis buffer with high imidazole concentration (30 mM imidazole). Finally, each protein was eluted by applying 10 ml of a buffer containing 20 mM Tris, pH 7.5, 300 mM NaCl, 330 mM imidazole, 1 mM DTT, and 0.02% NaN3. Tobacco etch virus protease was added to each sample and incubated overnight at 4 °C. To remove the cleaved GST tag each sample was passed over a second Ni-NTA column. A second purification step included size exclusion chromatography (HiLoad, Superdex 75 16/60, GE Healthcare). In this step, proteins were buffer exchanged into the NMR buffer (20 mM sodium phosphate, pH 6.3, 25 mM NaCl, and 2 mM fresh DTT or Tris(2-carboxyethyl)phosphine, 0.02% NaN3). Stoichiometric hybrid-labeled samples were prepared by mixing excess Bud13p with Snu17p and performing another step of size exclusion chromatography (HiLoad, Superdex 75 16/60, GE Healthcare). […]

Snu17p (residues 1–113) [2] = target: T1, Snu17p (residues 1–113) (Saccharomyces cerevisiae, UniProt P40565); test: NMR titration (1H,15N correlation spectra) of 15N-labeled Snu17p (residues 1–113) with Bud13p peptides; format: binding; conditions: 298 K, 20 mM sodium phosphate, pH 6.3, 25 mM NaCl
T1 construct: The concentration of Snu17p (residues 1–113) in the cell (1440 μl) varied between 30 and 70 μM; His6 (N, cleaved yes); GST (N, cleaved yes); made in house; host or cells: Escherichia coli BL21(DE3) pLysS
T1 sequence (P40565 1-113): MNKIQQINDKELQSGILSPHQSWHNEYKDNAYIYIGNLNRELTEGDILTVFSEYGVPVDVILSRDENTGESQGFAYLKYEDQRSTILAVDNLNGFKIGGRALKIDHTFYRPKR
Protocol: Recombinant proteins were purified by sonicating the harvested cell pellet in 25 ml of lysis buffer (20 mM Tris, pH 7.5, 300 mM NaCl, 10 mM imidazole, 1 mM DTT, and 0.02% NaN3), also including protease inhibitors, RNase, lysozyme, and 0.2% IGEPAL. After high speed centrifugation (20,000 × g, 30 min) and filtering, each supernatant was applied to Ni-NTA-agarose resin (Qiagen). Several rounds of washing were performed with: lysis buffer including 0.2% IGEPAL, lysis buffer, lysis buffer with high salt concentration (1 M NaCl), and lysis buffer with high imidazole concentration (30 mM imidazole). Finally, each protein was eluted by applying 10 ml of a buffer containing 20 mM Tris, pH 7.5, 300 mM NaCl, 330 mM imidazole, 1 mM DTT, and 0.02% NaN3. Tobacco etch virus protease was added to each sample and incubated overnight at 4 °C. To remove the cleaved GST tag each sample was passed over a second Ni-NTA column. A second purification step included size exclusion chromatography (HiLoad, Superdex 75 16/60, GE Healthcare). In this step, proteins were buffer exchanged into the NMR buffer (20 mM sodium phosphate, pH 6.3, 25 mM NaCl, and 2 mM fresh DTT or Tris(2-carboxyethyl)phosphine, 0.02% NaN3). Stoichiometric hybrid-labeled samples were prepared by mixing excess Bud13p with Snu17p and performing another step of size exclusion chromatography (HiLoad, Superdex 75 16/60, GE Healthcare). Two shorter peptides of Bud13p (residues 221–242 or residues 225–238) were purchased from Peptide Specialty Laboratories (Heidelberg, Germany), and extensively dialyzed before binding experiments.
NMR spectra were recorded at 298 K on an AVIII800 Bruker NMR spectrometer equipped with a cryogenic triple resonance gradient probe. Spectra were processed using NMRPipe ([21]). Protein backbone and side chain assignments were obtained from standard triple resonance experiments ([22]). NOE distance restraints were obtained from ^15N- and ^13C-edited three-dimensional NOESY spectra (mixing time 70 ms) where only Snu17p or Bud13p proteins were labeled. Intermolecular NOE restraints were derived from three-dimensional ^15N,^13C-filtered, ^13C-edited NOESY spectra (mixing time 70 ms) ([22], [23]). Stereospecific assignments of pro-chiral methyl groups of valine and leucine were obtained using 10% ^13C-labeled protein samples ([24]).
To characterize the unexpected molecular features of the Snu17p-Bud13p interaction we proceeded with biophysical and structural characterization of the binary complex (Fig. 3). […] We tested binding to a series of Bud13p fragments to identify the minimum binding region in Bud13p (Fig. 3, a and b). NMR titrations confirmed binding to a Bud13p peptide encompassing residues 201–266 as has been shown previously ([20]).

Snu17p = test: NMR of 15N-labeled Bud13p in complex with unlabeled Snu17p; format: binding, Saccharomyces cerevisiae; conditions: 15N-labeled Bud13p (residues 222–256), 298 K
Protocol: as §1, with “NaN3).” for “NaN3). Stoichiometric hybrid-labeled samples were prepared by mixing excess Bud13p with Snu17p and performing another step of size exclusion chromatography (HiLoad, Superdex 75 16/60, GE Healthcare).”
(§2) NMR spectra were recorded at 298 K on an AVIII800 Bruker NMR spectrometer equipped with a cryogenic triple resonance gradient probe. […]

Snu17p (residues 25–113) = test: NMR chemical shift perturbation with shorter Snu17p protein (residues 25–113); format: binding, Saccharomyces cerevisiae; conditions: shorter Snu17p protein (residues 25–113) compared with residues 1–113; data not shown
Protocol: as §1, with “NaN3).” for “NaN3). Stoichiometric hybrid-labeled samples were prepared by mixing excess Bud13p with Snu17p and performing another step of size exclusion chromatography (HiLoad, Superdex 75 16/60, GE Healthcare).”
as §2

Snu17p (residues 1–113) [3] = target: T1, Snu17p (residues 1–113); test: Isothermal titration calorimetry (ITC) of Bud13p ligands binding to Snu17p; conditions: 25 °C, NMR buffer pH 6.3
Protocol: as §1

| Substance | precipitation / solubility of the sample [1] | NMR chemical shift perturbations (CSPs) of Snu17p (Snu17p (residues 1–113) [2]) | chemical shift changes in Bud13p spectra on binding to Snu17p (Snu17p) | NMR CSPs induced by Bud13p binding (Snu17p (residues 25–113)) | binding affinity (in words) (Snu17p (residues 1–113) [3]) |
| --- | --- | --- | --- | --- | --- |
| Bud13p^222-256: Bud13p residues 222–256, recombinant from E. coli; optimal Bud13p peptide, minimum interacting region | proteins remained in solution | large chemical shift changes, induced by Bud13p binding, map on the two helices plus adjacent loop regions of the Snu17p RRM-fold | extensive chemical shift changes in Bud13p spectra | Virtually identical NMR CSPs |  |
| Bud13p^201-266: Bud13p residues 201–266, recombinant from E. coli, GST tag cleaved | led to precipitation of the sample | extensive chemical shift perturbations (CSPs) |  |  |  |
| Bud13p^225-238: Bud13p residues 225–238, purchased from Peptide Specialty Laboratories (Heidelberg) (AIMPGSRWDGVHRS) |  | hardly induced any NMR spectral changes for Snu17p |  |  | binds very weakly |
| ENRFAIMPGSRWDGVHRSNGFE [Bud13p^221-242] |  | affected the same Snu17p residues but to a lesser extent compared with the longer ones |  |  |  |
